In EP2488198B1 one finds sensitivity to LtxA-mediated toxicity data, which are given here for one substance.

For this assay, the target named is constitutively activated LFA-1 expressed at a high level on a Jurkat T-lymphocyte cell line (human) (UniProt P20701). Put plainly: cell-based or functional assay.
Chain of constitutively activated LFA-1 expressed at a high level on a Jurkat T-lymphocyte cell line (human) (P20701 26-1170, chain 1 of 2): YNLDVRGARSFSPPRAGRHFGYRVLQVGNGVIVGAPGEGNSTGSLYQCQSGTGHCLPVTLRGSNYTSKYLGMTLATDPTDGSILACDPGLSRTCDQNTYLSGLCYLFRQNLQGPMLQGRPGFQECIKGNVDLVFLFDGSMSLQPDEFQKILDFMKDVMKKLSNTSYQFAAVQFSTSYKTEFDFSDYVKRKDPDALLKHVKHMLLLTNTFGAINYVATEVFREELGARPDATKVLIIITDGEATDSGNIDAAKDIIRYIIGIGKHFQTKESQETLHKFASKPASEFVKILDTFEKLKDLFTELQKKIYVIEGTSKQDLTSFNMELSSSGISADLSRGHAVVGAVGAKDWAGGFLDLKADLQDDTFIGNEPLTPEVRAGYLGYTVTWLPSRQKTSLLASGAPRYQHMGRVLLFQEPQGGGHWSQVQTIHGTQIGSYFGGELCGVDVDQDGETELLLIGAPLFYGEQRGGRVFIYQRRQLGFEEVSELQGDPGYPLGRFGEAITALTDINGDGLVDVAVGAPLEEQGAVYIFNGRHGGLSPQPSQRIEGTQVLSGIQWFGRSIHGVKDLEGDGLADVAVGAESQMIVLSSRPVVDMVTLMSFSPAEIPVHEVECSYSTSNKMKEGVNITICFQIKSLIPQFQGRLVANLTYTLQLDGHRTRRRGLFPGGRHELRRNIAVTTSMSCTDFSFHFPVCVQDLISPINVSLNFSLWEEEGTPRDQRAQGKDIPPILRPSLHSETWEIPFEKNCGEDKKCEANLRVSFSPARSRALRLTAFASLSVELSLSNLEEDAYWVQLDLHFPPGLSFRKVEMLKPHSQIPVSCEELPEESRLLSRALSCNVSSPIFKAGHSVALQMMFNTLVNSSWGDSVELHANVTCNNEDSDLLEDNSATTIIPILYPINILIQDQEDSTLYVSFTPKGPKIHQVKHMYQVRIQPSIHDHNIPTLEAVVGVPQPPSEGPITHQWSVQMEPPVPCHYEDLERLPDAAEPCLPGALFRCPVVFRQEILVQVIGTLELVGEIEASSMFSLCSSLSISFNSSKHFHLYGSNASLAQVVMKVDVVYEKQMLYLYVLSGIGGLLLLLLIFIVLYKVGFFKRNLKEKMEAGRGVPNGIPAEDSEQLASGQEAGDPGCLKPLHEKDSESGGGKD
Chain of constitutively activated LFA-1 expressed at a high level on a Jurkat T-lymphocyte cell line (human) (P05107 23-769, chain 2 of 2, further chain): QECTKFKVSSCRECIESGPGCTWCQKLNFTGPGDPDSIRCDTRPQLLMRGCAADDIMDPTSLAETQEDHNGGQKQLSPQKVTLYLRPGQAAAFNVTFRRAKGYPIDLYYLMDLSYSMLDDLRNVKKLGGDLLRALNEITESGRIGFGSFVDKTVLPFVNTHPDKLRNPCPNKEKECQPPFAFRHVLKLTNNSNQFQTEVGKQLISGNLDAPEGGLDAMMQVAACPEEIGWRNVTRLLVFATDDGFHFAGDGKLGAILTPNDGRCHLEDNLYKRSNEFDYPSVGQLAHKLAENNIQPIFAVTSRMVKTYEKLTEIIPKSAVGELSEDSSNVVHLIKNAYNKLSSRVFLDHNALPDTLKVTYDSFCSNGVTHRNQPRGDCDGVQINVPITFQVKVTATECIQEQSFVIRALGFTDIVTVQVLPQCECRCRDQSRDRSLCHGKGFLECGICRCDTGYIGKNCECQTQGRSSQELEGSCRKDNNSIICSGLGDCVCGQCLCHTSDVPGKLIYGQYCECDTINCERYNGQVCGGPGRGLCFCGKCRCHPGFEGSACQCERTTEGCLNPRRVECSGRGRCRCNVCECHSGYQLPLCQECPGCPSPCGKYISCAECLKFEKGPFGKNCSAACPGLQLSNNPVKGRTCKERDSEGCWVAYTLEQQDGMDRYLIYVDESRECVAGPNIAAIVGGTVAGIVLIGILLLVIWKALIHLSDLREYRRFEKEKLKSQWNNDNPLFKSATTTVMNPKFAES

As to “Leukotoxin (LtxA) of Aggregatibacter actinomycetemcomitans strain NJ4500 (from UniProt P16462 1-1055)”, the sensitivity to LtxA-mediated toxicity was found to be 10 times.
